Bounds are passed on as bounds.

The target of the series is T1, PUF4 RNA-binding domain (Saccharomyces cerevisiae, UniProt P25339 537-888).
T1 sequence: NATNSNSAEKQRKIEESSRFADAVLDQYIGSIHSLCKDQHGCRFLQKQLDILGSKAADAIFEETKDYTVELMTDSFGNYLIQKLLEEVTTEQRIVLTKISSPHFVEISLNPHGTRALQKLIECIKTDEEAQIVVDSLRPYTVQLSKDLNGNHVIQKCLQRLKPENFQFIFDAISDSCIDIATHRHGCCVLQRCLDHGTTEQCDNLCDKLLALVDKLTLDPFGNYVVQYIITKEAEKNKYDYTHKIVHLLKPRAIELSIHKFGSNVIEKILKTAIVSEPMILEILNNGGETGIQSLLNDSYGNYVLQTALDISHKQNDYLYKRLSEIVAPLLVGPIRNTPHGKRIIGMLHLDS
As to the kind of experiment: Mg; RNA-MaP; 20 mM Na-HEPES pH 7.4, 30 mM KOAc, 0.75 mM MgCl2, 0.1% Tween-20, 5% glycerol, 0.1 mg/mL BSA, 2 mM DTT; 25 C; 0.0125-409.6 nM protein. Particulars: tags: N-His6-TEV cleaved; C-SNAP kept, Cy3B-labelled; label: tethered on chip by stalled RNA polymerase.
The molecule UCUCUUUGUAUCGGCUCUCUU (ssRNA) [Ic_S1_P4E.1_K4.1_C4.1_H4.1_A4.1_[A6C]_[T7G]_F4.1_[T8G]_[A9C]_T4.1] displayed a Kd of 2020 nM.

Molecule UCUCUUUGUAUCCCCUCUCUU (ssRNA) [Ic_S1_P4E.1_K4.1_C4.1_H4.1_A4.1_[A6C]_[T7C]_F4.1_[T8C]_[A9C]_T4.1] showed a Kd of 1020 nM.

On to UCUCUUUGUAUGUGGUCUCUU (ssRNA) [Ic_S1_P4E.1_K4.1_C4.1_H4.1_A4.1_[A6G]_F4.1_[T8G]_[A9G]_T4.1], for which the Kd stood at 1000 nM.

Consider UCUCUUUGUAUCCGUUCUCUU (ssRNA) [Ic_S1_P4E.1_K4.1_C4.1_H4.1_A4.1_[A6C]_[T7C]_F4.1_[T8G]_[A9T]_T4.1], for which the Kd is 1300 nM.

As for UCUCUUUGUAUGUCCUCUCUU (ssRNA) [Ic_S1_P4E.1_K4.1_C4.1_H4.1_A4.1_[A6G]_F4.1_[T8C]_[A9C]_T4.1], the equilibrium dissociation constant (Kd) was found to be 564 nM.

In turn, UCUCUUUGUAUGUAUUCUCUU (ssRNA) [Ic_S1_P4E.1_K4.1_C4.1_H4.1_A4.1_[A6G]_F4.1_[T8A]_[A9T]_T4.1] showed a Kd of 71.2 nM.

Consider UCUCUUUGUAUCCCGUCUCUU (ssRNA) [Ic_S1_P4E.1_K4.1_C4.1_H4.1_A4.1_[A6C]_[T7C]_F4.1_[T8C]_[A9G]_T4.1], for which the equilibrium dissociation constant (Kd) was over 2300 nM.

Regarding UCUCUUUGUAUCCUGUCUCUU (ssRNA) [Ic_S1_P4E.1_K4.1_C4.1_H4.1_A4.1_[A6C]_[T7C]_F4.1_[A9G]_T4.1], binding was put at a Kd of 82.6 nM.

On to UCUCUUUGUAUCUAGUCUCUU (ssRNA) [Ic_S1_P4E.1_K4.1_C4.1_H4.1_A4.1_[A6C]_F4.1_[T8A]_[A9G]_T4.1], for which the affinity, expressed as Kd, was 43.8 nM.

Molecule UCUCUUUGUAUUGGUUCUCUU (ssRNA) [Ic_S1_P4E.1_K4.1_C4.1_H4.1_A4.1_[A6T]_[T7G]_F4.1_[T8G]_[A9T]_T4.1] yielded a Kd of 500 nM.

For UCUCUUUGUAUCACCUCUCUU (ssRNA) [Ic_S1_P4E.1_K4.1_C4.1_H4.1_A4.1_[A6C]_[T7A]_F4.1_[T8C]_[A9C]_T4.1], the Kd turned out to be 432 nM.

With UCUCUUUGUAUGCAUUCUCUU (ssRNA) [Ic_S1_P4E.1_K4.1_C4.1_H4.1_A4.1_[A6G]_[T7C]_F4.1_[T8A]_[A9T]_T4.1], the Kd amounted to 565 nM.

In turn, UCUCUUUGUAUCAAUUCUCUU (ssRNA) [Ic_S1_P4E.1_K4.1_C4.1_H4.1_A4.1_[A6C]_[T7A]_F4.1_[T8A]_[A9T]_T4.1] gave a Kd of 91.5 nM.

In the case of UCUCUUUGUAUCAACUCUCUU (ssRNA) [Ic_S1_P4E.1_K4.1_C4.1_H4.1_A4.1_[A6C]_[T7A]_F4.1_[T8A]_[A9C]_T4.1], the Kd amounted to 508 nM.

UCUCUUUGUAUCAUCUCUCUU (ssRNA) [Ic_S1_P4E.1_K4.1_C4.1_H4.1_A4.1_[A6C]_[T7A]_F4.1_[A9C]_T4.1] displayed a dissociation constant Kd of 17.6 nM.

Turning to UCUCUUUGUAUGUGUUCUCUU (ssRNA) [Ic_S1_P4E.1_K4.1_C4.1_H4.1_A4.1_[A6G]_F4.1_[T8G]_[A9T]_T4.1], the Kd worked out at 92.5 nM.

UCUCUUUGUAUCGUUUCUCUU (ssRNA) [Ic_S1_P4E.1_K4.1_C4.1_H4.1_A4.1_[A6C]_[T7G]_F4.1_[A9T]_T4.1] returned a Kd of 328 nM.

Regarding UCUCUUUGUAUCUCUUCUCUU (ssRNA) [Ic_S1_P4E.1_K4.1_C4.1_H4.1_A4.1_[A6C]_F4.1_[T8C]_[A9T]_T4.1], the Kd was found to be 522 nM.

As for UCUCUUUGUAUGAUCUCUCUU (ssRNA) [Ic_S1_P4E.1_K4.1_C4.1_H4.1_A4.1_[A6G]_[T7A]_F4.1_[A9C]_T4.1], the Kd was 148 nM.

With UCUCUUUGUAUCAAUCUCUU (ssRNA) [Ic_S1_P3E.1_K3.1_C3.1_H3.1_A3.1_[A6C]_F3.1_[T7A]_T3.1], the Kd was determined as 108 nM.

UCUCUUUGUAUCCUCUCUCUU (ssRNA) [Ic_S1_P4E.1_K4.1_C4.1_H4.1_A4.1_[A6C]_[T7C]_F4.1_[A9C]_T4.1]: binding was put at a Kd of 67.2 nM.

For UCUCUUUGUAUUGGCUCUCUU (ssRNA) [Ic_S1_P4E.1_K4.1_C4.1_H4.1_A4.1_[A6T]_[T7G]_F4.1_[T8G]_[A9C]_T4.1], the Kd turned out to be 1330 nM.

Turning to UCUCUUUGUAUGCAUCUCUU (ssRNA) [Ic_S1_P3E.1_K3.1_C3.1_H3.1_A3.1_[A6G]_F3.1_[T7C]_T3.1], the Kd came out at 1280 nM.

On to UCUCUUUGUAUUGCGUCUCUU (ssRNA) [Ic_S1_P4E.1_K4.1_C4.1_H4.1_A4.1_[A6T]_[T7G]_F4.1_[T8C]_[A9G]_T4.1], for which binding was put at a Kd of 926 nM.

In the case of UCUCUUUGUAUCCAAUCUCUU (ssRNA) [Ic_S1_P4E.1_K4.1_C4.1_H4.1_A4.1_[A6C]_[T7C]_F4.1_[T8A]_T4.1], binding was put at a Kd of 1050 nM.

As for UCUCUUUGUAUCCCAUCUCUU (ssRNA) [Ic_S1_P4E.1_K4.1_C4.1_H4.1_A4.1_[A6C]_[T7C]_F4.1_[T8C]_T4.1], binding was put at a Kd of 709 nM.

Molecule UCUCUUUGUAUGCUCUCUCUU (ssRNA) [Ic_S1_P4E.1_K4.1_C4.1_H4.1_A4.1_[A6G]_[T7C]_F4.1_[A9C]_T4.1] gave a Kd of 677 nM.

In turn, UCUCUUUGUAUGCUUUCUCUU (ssRNA) [Ic_S1_P4E.1_K4.1_C4.1_H4.1_A4.1_[A6G]_[T7C]_F4.1_[A9T]_T4.1] had a Kd of 96.1 nM.

Molecule UCUCUUUGUAUUCAUCUCUU (ssRNA) [Ib_S1_P3E.1_K3.1_C3.1_H3.1_A3.1_[A6T]_F3.1_[T7C]_T3.1] gave a Kd of 296 nM.

Regarding UCUCUUUGUAUGAUGUCUCUU (ssRNA) [Ic_S1_P4E.1_K4.1_C4.1_H4.1_A4.1_[A6G]_[T7A]_F4.1_[A9G]_T4.1], the Kd turned out to be 56.7 nM.

The term Kd denotes the concentration at which binding is half-saturated. High values mean a looser complex, low ones a tighter complex.

These data come from article PMC9352680, “A comprehensive thermodynamic model for RNA binding by the Saccharomyces cerevisiae Pumilio protein PUF4”.
